Measurements published in patent publication US20240287169A1 (AULOS BIOSCIENCE, published 2024).
Each block holds one binder with its values, some of them ahead of it.

Key:
[1] = molecular target: T1, Non-alpha-IL-2 (naIL-2, hIL-2/hCD25 conjugate) (human, UniProt P01589 22-240; P60568 21-153); assay: SPR, biotinylated hCD25 on the chip, naIL-2 injected
T1 construct: Expressed in Expi293 cells; also called IL-2-CD25 conjugate; hIL-2/CD25 conjugated cytokine

Human IL-2 [2] = molecular target: T2, Human IL-2 (human, UniProt P60568 21-153); assay: SPR, multi-cycle, antibody captured, hIL-2 analyte
T2 construct: Soluble analyte in the SPR experiments; also called hIL-2; recombinant human IL-2
Excerpt: (§1) The SPR analysis was done on Biacore […] (GE healthcare, USA) on CM5 chips (cat:br10005-30, GE healthcare, USA). The chip was crosslinked with primary capture Ab against human IgG (Cat: br-1008-39, GE healthcare, USA) or primary capture antibody against mouse IgG (Cat: BR-1008-38, GE healthcare, USA) to a target of 8000RU. After cross-linking of the primary Ab, the mouse and human tested antibodies were immobilized on the primary Ab to a target of approximately additional 500RU. […] At the end of each cycle the analyte and tested antibody were stripped from the chip using 3M MgCl₂ and new tested Ab was loaded on the chip as described above. When indicated, instead of stripping the antibodies, kinetics was determined by injecting series of analyte concentrations in one cycle by the Single-cycle kinetics method. Binding kinetics were determined by the 1:1 Binding model using the Biacore T200 evaluation software.

Human IL-2 [3] = molecular target: T2, Human IL-2; assay: SPR, single-cycle, antibody captured, hIL-2 analyte
Excerpt: as §1

Human IL-2 [4] = molecular target: T2, Human IL-2; assay: SPR, antibody captured on anti-human IgG CM5 chip, human IL-2 as analyte, single-cycle, 1:1 binding model
Excerpt: as §1

cynomolgus monkey IL-2 = molecular target: T3, cynomolgus monkey IL-2 (cynomolgus monkey, UniProt Q29615 21-154); assay: SPR, multi-cycle, antibody captured, cynomolgus IL-2 analyte
T3 construct: also called cIL-2
Excerpt: as §1

Human IL-2 [5] = molecular target: T2, Human IL-2; assay: SPR, antibody captured on anti-human IgG CM5 chip, human IL-2 as analyte, multi-cycle, 1:1 binding model
Excerpt: as §1

Human IL-2 [6] = molecular target: T2, Human IL-2; assay: SPR Biacore T200, antibody captured, hIL-2 analyte
Excerpt: as §1

Mouse IL-2 [7] = molecular target: T4, Mouse IL-2 (mouse, UniProt P04351 21-169); assay: SPR Biacore T200, antibody captured, mIL-2 analyte
T4 construct: Soluble analyte in SPR; also called mIL-2
T4 sequence (looked up): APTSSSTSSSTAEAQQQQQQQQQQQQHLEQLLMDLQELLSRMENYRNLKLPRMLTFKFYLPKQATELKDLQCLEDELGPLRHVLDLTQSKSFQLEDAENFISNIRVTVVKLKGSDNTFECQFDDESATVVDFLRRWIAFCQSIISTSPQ
Excerpt: as §1

Mouse IL-2 [8] = molecular target: T4, Mouse IL-2; assay: SPR Biacore, antibody captured, mIL-2 analyte
Excerpt: as §1

T2 sequence (P60568 21-153 limits assumed): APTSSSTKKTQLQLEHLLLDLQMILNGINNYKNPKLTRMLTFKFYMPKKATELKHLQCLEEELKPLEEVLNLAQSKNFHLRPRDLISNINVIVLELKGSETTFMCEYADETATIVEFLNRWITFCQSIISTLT
T3 sequence (Q29615 21-154 limits assumed): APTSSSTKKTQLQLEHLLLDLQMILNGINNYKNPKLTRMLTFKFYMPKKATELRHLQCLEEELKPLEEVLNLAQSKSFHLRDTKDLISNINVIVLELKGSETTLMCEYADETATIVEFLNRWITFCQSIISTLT

Kd (cynomolgus monkey IL-2): 0.014 nM
koff (cynomolgus monkey IL-2): 0.000398 s⁻¹
kon (cynomolgus monkey IL-2): 2.83e+07 M⁻¹ s⁻¹
Kd (Human IL-2 [2]): 0.011 nM
koff (Human IL-2 [2]): 0.000372 s⁻¹
kon (Human IL-2 [2]): 3.37e+07 M⁻¹ s⁻¹
B4: BDG17.067 (antibody, human IgG1, kappa, L234A L235A, V domains shown)
VH: QVQLVQSGAEVKKPGSSVKVSCKASGYSITDYLIHWVRQAPGQGLEWMGWIDPEDGVTAYAQKFQGRVTLTADTSTSTAYMELSSLRSEDTAVYYCARSLDYDPIYPFAYWGQGTLVTVSS
VL: DIVMTQSPDSLAVSLGERATINCKSSQSLLRNGNQKNYLAWYQQKPGQPPKLLIYYASTGQSGVPDRFSGSGSGTDFTLTISSLQAEDVAVYYCQQHYVTPPTFGAGTKVEIKR
notes: Humanized IgG1 with the LALA mutation; also called BDG17.0067

Kd (Human IL-2 [5]): 0.0478 nM
koff (Human IL-2 [5]): 0.000266 s⁻¹
kon (Human IL-2 [5]): 3.39e+07 M⁻¹ s⁻¹
Kd (Human IL-2 [2]): 0.0482 nM
koff (Human IL-2 [2]): 0.000222 s⁻¹
B6: BDG17.043 (antibody, V domains shown)
VH: QVQLVQSGAEVKKPGSSVKVSCKASGYSITDYLIHWVRQAPGQGLEWMGWIDPEDGVTAYAQKFQGRVTLTADTSTSTAYMELSSLRSEDTAVYYCARSLDYDPIYPFAYWGQGTLVTVSS
VL: DIVMTQSPDSLAVSLGERATINCKSSQSLLRNGNQKNYLAWYQQKPGQPPKLLIYYASTGQSGVPDRFSGSGSGTDFTLTISSLQAEDVAVYYCQQHYVTPPTFGAGTKVEIK
notes: Humanized IgG1; also called BDG017.043

koff (Human IL-2 [5]): 0.0002 s⁻¹
Kd (Human IL-2 [2]): 0.0202 nM
koff (Human IL-2 [2]): 0.0002 s⁻¹
kon (Human IL-2 [2]): 1.41e+07 M⁻¹ s⁻¹
B7: BDG17.038 (antibody, V domains shown)
VH: QVQLVQSGAEVKKPGSSVKVSCKASGYSITDSLIHWVRQAPGQGLEWMGWIDPEDGEINYAQKFQGRVTLTADTSTSTAYMELSSLRSEDTAVYYCARSLDSYPIDPFAYWGQGTLVTVSS
VL: DIVMTQSPDSLAVSLGERATINCKSSQSLLRNGNQQNYLAWYQQKPGQPPKLLIYYASTGQSGVPDRFSGSGSGTDFTLTISSLQAEDVAVYYCQQHYVTPPTFGAGTKVEIK
notes: Humanized IgG1

The remaining lines, values behind:

B1: biotinylated human CD25 (receptor, UniProt P01589 22-213, looked up)
chain: ELCDDDPPEIPHATFKAMAYKEGTMLNCECKRGFRRIKSGSLYMLCTGNSSHSSWDNQCQCTSSATRNTTKQVTPQPEEQKERKTTEMQSPMQPVDQASLPGHCREPPPWENEATERIYHFVVGQMVYYQCVQGYRALHRGPAESVCKMTHGKTRWTQPQLICTGEMETSQFPGEEKPQASPEGRPESETSC
modifications: biotinylated
notes: Captured on a streptavidin-coated chip; also called biotinylated hCD25
binding result [1]: no binding (tested: 1 uM)

B2: BDG17.066 (antibody, human IgG1, kappa, L234A L235A, V domains shown)
VH: QVQLVQSGAEVKKPGSSVKVSCKASGYSITDSLIHWVRQAPGQGLEWMGWIDPEDGEINYAQKFQGRVTLTADTSTSTAYMELSSLRSEDTAVYYCARSLDSYPIDPFAYWGQGTLVTVSS
VL: DIVMTQSPDSLAVSLGERATINCKSSQSLLRNGNQQNYLAWYQQKPGQPPKLLIYYASTGQSGVPDRFSGSGSGTDFTLTISSLQAEDVAVYYCQQHYVTPPTFGAGTKVEIKR
notes: Humanized IgG1 with the LALA mutation (L234A, L235A)
Kd (Human IL-2 [2]): 0.0515 nM
koff (Human IL-2 [2]): 0.000785 s⁻¹
kon (Human IL-2 [2]): 1.52e+07 M⁻¹ s⁻¹

B3: BDG17.053 (antibody, V domains shown)
VH: QVQLVQSGAEVKKPGSSVKVSCKASGYSITDYLIHWVRQAPGQGLEWMGWIDPEDGETNYAQKFQGRVTLTADTSTSTAYMELSSLRSEDTAVYYCARSLDYDPIYPFAYWGQGTLVTVSS
VL: DIVMTQSPDSLAVSLGERATINCKSSQSLLRNGNQKNYLAWYQQKPGQPPKLLIYYASTGQSGVPDRFSGSGSGTDFTLTISSLQAEDVAVYYCQQHYITPPTFGAGTKVEIK
notes: Humanized IgG1
Kd (Human IL-2 [3]): 0.0643 nM
koff (Human IL-2 [3]): 0.00254 s⁻¹
kon (Human IL-2 [3]): 3.96e+07 M⁻¹ s⁻¹
kon (Human IL-2 [4]): 3.39e+07 M⁻¹ s⁻¹

B5: BDG17.054 (antibody, V domains shown)
VH: QVQLVQSGAEVKKPGSSVKVSCKASGYSITDDLIHWVRQAPGQGLEWMGWIDPEDGETNYAQKFQGRVTLTADTSTSTAYMELSSLRSEDTAVYYCARSLDSTWIYPFAYWGQGTLVTVSS
VL: DIVMTQSPDSLAVSLGERATINCKSSQSLLRRGNQKNHLAWYQQKPGQPPKLLIYDASTGQSGVPDRFSGSGSGTDFTLTISSLQAEDVAVYYCLQSYITPPTFGAGTKVEIK
notes: Humanized IgG1 without the LALA mutation
Kd (Human IL-2 [3]): 0.0127 nM
koff (Human IL-2 [3]): 0.0007 s⁻¹
kon (Human IL-2 [3]): 5.5e+07 M⁻¹ s⁻¹

B8: BDG17.023 IgG (antibody, V domains shown)
VH: EIQLQQSGPELRRPGSSVKLSCKASGYNITDYLIHWVRHRPEHGLEWIGWIDPEDGETRYAQKFQSKATLTADTSSNAAYMQLSSLTPEDTATYFCARQLDSTYIYPFAYWGQGTLVTVSS
VL: DIVMTQSPFSLAVSEGEMVTINCKSSQSLLRSGNQKNYLAWYQQKPGQSPKLLIYYASTGQSGVPDRFIGSGSGTDFTLTISDVQAEDLADYYCLQHYITPPTFGAGTKLELK
notes: Human chimeric IgG1 with rat Fv
Kd (Human IL-2 [6]): 0.0818 nM
koff (Human IL-2 [6]): 0.00107 s⁻¹
kon (Human IL-2 [6]): 1.31e+07 M⁻¹ s⁻¹
Kd (Mouse IL-2 [7]): 2460 nM
koff (Mouse IL-2 [7]): 0.0979 s⁻¹
kon (Mouse IL-2 [7]): 39800 M⁻¹ s⁻¹

B9: BDG JES6.1RMC (17.006) (antibody, V domains shown)
VH: EIQLQQSGPELRRPGSSVKLSCKASGYNITDYLIHWVRHRPEHGLEWIGWIDPEDGETRYAQKFQSKATLTADTSSNAAYMQLSSLTPEDTATYFCARSLDSTYIYPFAYWGQGTLVTVSS
VL: DIVMTQSPFSLAVSEGEMVTINCKSSQSLLSSGNQKNYLAWYQQKPGQSPKLLIYYASTGQSGVPDRFIGSGSGTDFTLTISDVQAEDLADYYCLQHYISPPTFGAGTKLELK
notes: Rat Fv with a mouse IgG2a constant region
Kd (Mouse IL-2 [8]): 0.13 nM
koff (Mouse IL-2 [8]): 6.3e-05 s⁻¹
kon (Mouse IL-2 [8]): 480000 M⁻¹ s⁻¹
